Results taken from US20040266662A1, “Spheroidal hdl particles with a defined phospholipid composition” (priority 2001, published 2004).

Test: Unfolding of apoA-I by guanidine hydrochloride
Assay type: physicochemical
Description: FIG. 4. Unfolding of apoA-I in spherical (POPC)rHDL, (PLPC)rHDL, (PAPC)rHDL and (PDPC)rHDL. (POPC)rHDL, (PLPC)rHDL, (PAPC)rHDL, (PDPC)rHDL and lipid-free apoA-I were incubated with 0-8 M GdnHCl for 0 (◯), 5 ( ), and 24 (●) h. Values represent the mean of at least three determinations. Experimental errors for the wavelength of maximum fluorescence are ±1.0 nm.
FIG. 5. Kinetics of the unfolding of apoA-I in spherical (POPC)rHDL, (PLPC)rHDL, (PAPC)rHDL and (PDPC)rHDL. Spherical (POPC)rHDL ( ), (PLPC)rHDL ( ), (PAPC)rHDL (●), (PDPC)rHDL ( ) and lipid-free apoA-I (◯) were incubated with 3.5 M GdnHCl for 0-24 h. The wavelengths of maximum fluorescence represent the mean±sd of triplicate determinations.
The unfolding of apoA-I was determined by incubating the rHDL preparations at 25° C. for 0-24 h in the presence of 0-8.0 M guanidine hydrochloride (11).

## lipid-free apoA-I: Apolipoprotein A-I purified from delipidated HDL of pooled human plasma, used as lipid-free comparator
3.5 M GdnHCl, 0-24 h
  rate of unfolding of apoA-I: unfolded rapidly and completely
25° C.
  concentration of GdnHCl required to achieve 50% unfolding of apoA-I: 1.0 M
